Columns and labels:
[1] = target: delta-LNGFR/F12Nef fusion protein, product of the NF vector (human LNGFR (NH2 moiety) fused to HIV-1 F12Nef (COOH moiety)); test: FACS on CEMss NF cells, control labeling
[2] = target: low affinity human Nerve Growth Factor receptor truncated in its intracytoplasmic domain (delta-LNGFR), product of the HN vector (human); test: FACS on CEMss HN cells, control labeling
Sequence of low affinity human Nerve Growth Factor receptor truncated in its intracytoplasmic domain (delta-LNGFR), product of the HN vector (human) (chain, as listed by the source mutant limits assumed): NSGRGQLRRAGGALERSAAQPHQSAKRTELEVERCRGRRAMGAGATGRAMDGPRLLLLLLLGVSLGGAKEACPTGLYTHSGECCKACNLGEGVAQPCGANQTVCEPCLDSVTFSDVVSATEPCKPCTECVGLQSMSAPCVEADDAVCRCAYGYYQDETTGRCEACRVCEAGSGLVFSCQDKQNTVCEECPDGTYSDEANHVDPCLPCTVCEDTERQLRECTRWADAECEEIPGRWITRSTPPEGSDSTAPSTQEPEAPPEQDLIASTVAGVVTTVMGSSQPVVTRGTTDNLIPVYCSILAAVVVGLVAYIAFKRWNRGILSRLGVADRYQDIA

“species and isotype matched IgG (antibody)” gave an MFI [1] of 1 to 1.5 and an MFI [2] of 1 to 1.5.

From patent US20040087537A1
